For two sequences, Kd and binding signal results are on record in paper PMC11763500.

pKd: −log10 of the molar value. “And” between values parts separate entries of the source, which are not always exact repeats. Equal entries are not always repeated.

In series [1] the target is SARS-CoV-2 spike (S) protein, Omicron (SARS-CoV-2 Omicron variant) (UniProt P0DTC2). Put plainly: SPR. As to conditions: 5' di-DTPA (2 dithiol phosphoramidite) in printed sequence; not stated whether present in SPR analyte.
For series [2] the target is unchanged. Put plainly: electrochemical aptasensor (DPV). To be noted: 5' di-DTPA (2 dithiol phosphoramidite groups), on gold with PEG 2000 backfill.
In series [3] the target is SARS-CoV-2 spike (S) protein, alpha (SARS-CoV-2 alpha variant) (UniProt P0DTC2). As to the kind of experiment: electrochemical aptasensor (DPV). To be noted: 5' di-DTPA (2 dithiol phosphoramidite groups), on gold with PEG 2000 backfill.
In series [4] the target is SARS-CoV-2 spike (S) protein, beta (SARS-CoV-2 beta variant) (UniProt P0DTC2). Put plainly: electrochemical aptasensor (DPV). To be noted: 5' di-DTPA (2 dithiol phosphoramidite groups), on gold with PEG 2000 backfill.

In series [1], “GGGGGCGTCAAGCGGGGTCACATCGGAGTAGGGAATCTTG [C9t (SPR)]” gave a pKd of 7.84.

Take “GGGGGCGTCAAGCGGGGTCACATCGGAGTAGGGAATCTTG [C9t di-DTPA (surface-immobilized)]”: the binding signal in series [2] was 1240 dI/I0; in series [3] it was 17.9 dI/I0 and 31.9 dI/I0; in series [4] it was 27.1 dI/I0 and 43.6 dI/I0.
